Results published in the nanobody polyreactivity screen of Harvey et al. (2022).

assay: yeast display, Sf9 membrane polyspecificity reagent, FACS + sequencing; frameworks hold sequencing errors
How it was run: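 Nanobodies from a synthetic yeast display library (Saccharomyces cerevisiae BJ5465), induced 36–48 hours with galactose, were stained 1 hour at 4 °C with 10% biotinylated, detergent-solubilized Sf9 membrane reagent, enriched on streptavidin microbeads, then FACS-sorted. Anti-HA (expression) and streptavidin (reagent binding) fluorescence set low and high (top ~1%) gates. Polyreactivity labels come from the gate of origin. Genes were colony-PCR amplified, MiSeq 2 × 250 sequenced and filtered by CDR length.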

| Sequence | polyreactivity (PSR sort gate) |
| --- | --- |
| QVQLVESGGGLVQAGGSLRLSCAASGSIFYWYAMGWYRQAPGKERELVAAISRNGGNTYYADSVKGRFTISRDNAKNTVYLQMNSLKPEDTAVYYCAVAGTVLSHMGYWGQGTQVTVSS | low polyreactivity |
| QVQLVESGGGLVQAGGSLRLSCAASGSIFYWYAMGWYRQAPGKERELVAAISSGGSTNYADSVKGRFTISRDNAKNTVYLQMNSLKPEDTAVYYCNADIRSFYWEYYTGLDSWGQGTQVTVSS | low polyreactivity |
| QVQLVESGGGLVQAGGSLRLSCAASGSIFYWYAMGWYRQAPGKERELVAAISSSGSTNYADSVKGRFTISRDNAKNTVYLQMNSLKPEDTAVYYCAAYRTGYNGWGYGYWGQGTQVTVSS | high polyreactivity |
| QVQLVESGGGLVQAGGSLRLSCAASGSIFYYAMGWYRQAPGKERELVAAISSGGRTNYADSVKGRFTISRDNAKNTVYLQMNSLKPEDTAVYYCAAVSPYGSQYGYWGQGTQVTVSS | high polyreactivity |
| QVQLVESGGGLVQAGGSLRLSCAASGSIFYYAMGWYRQAPGKERELVATISASGGSTYYADSVKGRFTISRDNEKNTVYLQMNSLKAEDTAVYYCAVRYKSWYGFNYWGQGTQVTVSS | high polyreactivity |
| QVQLVESGGGLVQAGGSLRLSCAASGSIFYYKYAMGWYRQAPGKERELVAAITSTGGTTYYADSVKGRFTISRDNAKNTVYLQMNSLKPEDTAVYYCAALAPYIGGVDYDYWGQGTQVTVSS | low polyreactivity |
| QVQLVESGGGLVQAGGSLRLSCAASGSIFYYNAMGWFRQAGGKERELVAALSWSGGSTYYADSVKGRYTISRDNATNTVSLQMNSLKPEETAVYYCNAVGWYTYFSGSRKYNSWGQGTQVTVSS | low polyreactivity |
| QVQLVESGGGLVQAGGSLRLSCAASGSIFYYNAMGWYRQAPGKERELVAAISQRGTRTYYADSVKGRFTISRDNAKNTVYLQMNSLKPEVTAVYYCAAESSSYYGYYIYYYWGQGTQVTVSS | high polyreactivity |
| QVQLVESGGGLVQAGGSLRLSCAASGSIFYYNAMGWYRQAPGKERELVAAISVSGGSTYYADSVKGRFTISRDNAKNTVYLQMNSLKPEDTAVYYCAAEWLYYYWLPGRADYLEYDYWGQGTQVTVSS | low polyreactivity |
| QVQLVESGGGLVQAGGSLRLSCAASGSIFYYNAMGWYRQAPGKERELVASISERGGITRYADSVKGRFTISRDNAKNTVYLQMNSLKREDTAVYYCNRSISLTFYAYAGYFLALDYWGQGTQVTVSS | low polyreactivity |
| QVQLVESGGGLVQAGGSLRLSCAASGSIFYYNAMGWYRQAPGKERELVATIRSGGNTNYADSVKGRFTISRDNAKNTVYLQMNSLKPEDTAVYYCAARGAYHGYRYDSWGQGTQVTVSS | low polyreactivity |
| QVQLVESGGGLVQAGGSLRLSCAASGSIFYYNAMGWYRQAPGTERELVAAITSSGGSTYADSVKGRFTISRDNAKNTVYLQMNSLKPEDTAVYYCATVAHGLWSGSGYIYAYDYWGQGTQVTVSS | low polyreactivity |
| QVQLVESGGGLVQAGGSLRLSCAASGSIFYYNAMGWYRQAPGTERELVAAITSSGGSTYYADSVKGRFTISRDNAKNTVYLQMNSLKPEDTAVYYCNADQDAYYLVYIATYDYWGQGTQVTVSS | low polyreactivity |
| QVQLVESGGGLVQAGGSLRLSCAASGSIFYYNTMGRYRQAPGKERELVAAIRFDDGSTYYADSVKGRFTISRDNAKNTVYLQMNSLKPEDTAVYYCAADWIVVSEFGLDYHMDYWGQGTQVTVSS | low polyreactivity |
| QVQLVESGGGLVQAGGSLRLSCAASGSIFYYTNTMGWYRQAPGKERELFAAISSSGGTTYADSVKGRFTISRDYSKNTVYLQMNSLKPEDSAVYYCALDCVLKTYVRGTYDYWGQGTQVTVSS | high polyreactivity |
| QVQLVESGGGLVQAGGSLRLSCAASGSIFYYYAMGWYRLAAGKERELVAAINSGGSTYADSVKGRFSISRDNAKNTVYLQMNSLIPEDSAVYYSATDIHSVDNNRDKHDYDYWGQGTQVTVSS | low polyreactivity |
| QVQLVESGGGLVQAGGSLRLSCAASGSIFYYYAMGWYRQAPGKERELVAAISRSGGSTYYADSVKGRFTISRDNAKNTVYLQMNSLKPEDTAVYYCNVAYGLQPYDYWGQGTQVTVSS | high polyreactivity |
| QVQLVESGGGLVQAGGSLRLSCAASGSIFYYYAMGWYRQAPGKERELVAAISTSSGRTYYADSVKGRFTISRDNAKNTVYLQMNSLKPEDTAVYYCATRYRRDGGSWGQGTQVTVSS | high polyreactivity |
| QVQLVESGGGLVQAGGSLRLSCAASGSIFYYYAMGWYRQAPGKERELVAAISYGGTRTYYADSVKGRFTISRDNAKNTVYLQMNSLKPEDTAVYYCAASQYSFKGRDYDYWGQGTQVTVSS | low polyreactivity |
| QVQLVESGGGLVQAGGSLRLSCAASGSIFYYYAMGWYRQAPGKERELVAAITVSGGRTYYADSVKGRFTISRDNAKNTVYLQMNSLKPEDTAVYYCAAQIYGKYDYWGQGTQVTVSS | low polyreactivity |
| QVQLVESGGGLVQAGGSLRLSCAASGSIFYYYAMGWYRQAPGKERELVAAITVSGGSTYYADSVKGRFTISRDNAKNTVYLQMNSLKPEDTAVYYCAAVSLFRDSQFDYWGQGTQVTVSS | low polyreactivity |

| Sequence | polyreactivity (PSR sort gate) |
| --- | --- |
| QVQLVESGGGLVQAGGSLRLSCAASGSIFYYYAMGWYRQAPGKERELVASITSGGRTYYADSVKGRFTISRDNAKNTVYFQMNSLKPEDTAVYYCAAVYGGLTLTRNYNWGQGTQVTVSS | high polyreactivity |
| QVQLVESGGGLVQAGGSLRLSCAASGSIFYYYAMVWSRQAPGKERELVAAISSGGRTYYADSVKGRFTISRDNAKYTVYLQMNSLKPEDTAVYYCAAVLRSNRGGYWGQGTQVTVSS | high polyreactivity |
| QVQLVESGGGLVQAGGSLRLSCAASGSIFYYYPMGWYRQAPGKERELVAAINSVGSTYADSVKGRFTISRDNAKNTVYLQMNSLKPEDSAVYYCENYYWGQGTQVTVSS | low polyreactivity |
| QVQLVESGGGLVQAGGSLRLSCAASGSIFYYYTMGWYRQAPGKERELVAAINSGGNTYYADSVKGRFTISRDNAKNTVYLQMNSLKPEDTAVYYCAAGPLYYDYDYWGQGTQVTVSS | low polyreactivity |
| QVQLVESGGGLVQAGGSLRLSCAASGSIFYYYTMGWYRQSPGKERELVAAIRWSSGTTYYADSVKGRFTISRDKAKNTVYLQINSLKPEDTAVYYCAAGGHARTWYAYYYWGQGTQVTVSS | low polyreactivity |
| QVQLVESGGGLVQAGGSLRLSCAASGSIFYYYVRGWYRQAPGKEREFVAAISWGGDSTYYADSVKGRFTISRDNAKNTFYLQMNSLQPEDTAVYYCNADYPWSVVGYDYWAQGTQVTVSS | low polyreactivity |
| QVQLVESGGGLVQAGGSLRLSCAASGSIHSLYTMGWYRQAPGKERELVARISRSGGSTYYADSVKGRFTISRDYAKNTVYLQMNSLKPEDTAVYYCADERKNKYDYWGQGTQVTVSS | high polyreactivity |
| QVQLVESGGGLVQAGGSLRLSCAASGSIIDLYAMGWYRQAPGKERELVAAISFSGGSTYYADSVKGRFTISRDNAKNTVYLQMNSLKPEDTAVYYCAKDVRRTLRFRAFDYWGQGTQVSVSS | low polyreactivity |
| QVQLVESGGGLVQAGGSLRLSCAASGSIIFRYAMGWSRQAPGKERELVARISWGGGRTYYADSVKGRFTISRDNAQNTVYLQMNSLKPEDSAVYYCNRAFWVNPGGFDYWGQGTQVTVSS | high polyreactivity |
| QVQLVESGGGLVQAGGSLRLSCAASGSIIFYYAMGWYRQAPGKERDFVAGITYSGGITYYADSVKGRFTISRDNAKNTVYLQMNSMKPEDTAVYFCDYGGGVYQYGYWGQGTQVTVSS | low polyreactivity |
| QVQLVESGGGLVQAGGSLRLSCAASGSIIGDNTMGWYRPAPGKERELVAAISSSGSTYYADSVKGRFTISRDNAKNTVYLQMNSLKPEDTAVYYCAAYDYGHVEYGYWGQGSQVTVSS | low polyreactivity |
| QVQLVESGGGLVQAGGSLRLSCAASGSIIGRYTMGWYRQAPGKERELVAAISRSGGSTYYADSVKGRFTISRDNAKNTVYLQMNSLKPEDTAVYYCAARYRAKRRYYYWGQGTQVTVSS | high polyreactivity |
| QVQLVESGGGLVQAGGSLRLSCAASGSIIGVNAMGWYRQAPGKERELVAAISSTGGSTYYADSVKGRFTISRDNAKNTVYLQMNSLKPEDTAVYYCNTDYSKSIGDGYAGFDYWGQGTQVTVSS | low polyreactivity |
| QVQLVESGGGLVQAGGSLRLSCAASGSIIGYYTMGWYRQAPGKEREFVAAISWSGGSTYYADSVKGRFTISRDNAKNTVYLQMNSLKPEDTAVYYCNADVYWEYDYCGQGTQVTVSS | low polyreactivity |
| QVQLVESGGGLVQAGGSLRLSCAASGSIIKWYAMGWYRQAPGKERELVAAISASGGSTYYADSVKGRFTISRDNAKHTVYLQMNSLKPEDTAVYYCNTDHYYSSRHYDYWGQGTQVTVSS | low polyreactivity |
| QVQLVESGGGLVQAGGSLRLSCAASGSIILHNAMGWYRQAPGKERELVAGITGSGGSTYYADSVKGRFTISRDNAMNTVYLQMNSLKPEDTAVYYCAAGSRSRYYRYVYYKYVTMDYWGQGTQVTVSS | high polyreactivity |
| QVQLVESGGGLVQAGGSLRLSCAASGSIILHYAMGRYRHAPRKERELVAVIRGGGSTNYADSVKGRFTISRDNAKNSVYLQMNSLKPEDSAVYYCAADYEAYRYDFWGQGTQVTVSS | high polyreactivity |
| QVQLVESGGGLVQAGGSLRLSCAASGSIINAYAMGWYRPAPGKERELVAAINSGGTTYYADSVKGRFTISRDNAKNTVYLQMISLKPEDTAVYYCNAVSKWAIYDYWGQGTQVTVSS | high polyreactivity |
| QVQLVESGGGLVQAGGSLRLSCAASGSIISYYAMGWYRQAPGKERELVAAISWSGGSTYYADSVKGRFTISRDNAKNTVYLQMNSLKPEDTAVYYCNTVRRLKRYSSYGHDYWGQGTQVTVSS | high polyreactivity |
| QVQLVESGGGLVQAGGSLRLSCAASGSIITGYAMGWYRQAPGKERELVAAITGNAGSTYYADSVKGRFTISRDNAKNTVYLQMNSLKPEDTAVYYCNARSWYVRVDYWGQGTQVTVSS | low polyreactivity |
